The chains are these.
B1: SEQ ID NO: 85 (Fc fusion)
chain: DKTHTCPPCPAPEAAGGPSVFLFPPKPKDTLMISRTPEVTCVVVDVSHEDPEVKFNWYVDGVEVHNAKTKPREEQYNSTYRVVSVLTVLHQDWLNGKEYKCKVSNKALAAPIEKTISKAKGQPREPQVYTLPPSRDELTKNQVSLTCLVKGFYPSDIAVEWESNGQPENNYKTTPPVLDSDGSFFLYSKLTVDKSRWQQGNVFSCSVLHEALHSHYTQKSLSLSPGKGGSDSWQEEVIKLCGRELVRAQIAICGKSTGGEGEGGEGEGGSRQDYSALANKCCHVGCTKRSLAQFC
B2: SEQ ID NO: 83 (Fc fusion)
chain: DKTHTCPPCPAPEAAGGPSVFLFPPKPKDTLMISRTPEVTCVVVDVSHEDPEVKFNWYVDGVEVHNAKTKPREEQYNSTYRVVSVLTVLHQDWLNGKEYKCKVSNKALAAPIEKTISKAKGQPREPQVYTLPPSRDELTKNQVSLTCLVKGFYPSDIAVEWESNGQPENNYKTTPPVLDSDGSFFLYSKLTVDKSRWQQGNVFSCSVLHEALHSHYTQKSLSLSPGGGSDSWQEEVIKLCGRELVRAQIAICGKSTGGEGEGGEGEGGSRQLYSALANKCCHVGCTKRSLARFC
B3: SEQ ID NO: 84 (Fc fusion)
chain: DKTHTCPPCPAPEAAGGPSVFLFPPKPKDTLMISRTPEVTCVVVDVSHEDPEVKFNWYVDGVEVHNAKTKPREEQYNSTYRVVSVLTVLHQDWLNGKEYKCKVSNKALAAPIEKTISKAKGQPREPQVYTLPPSRDELTKNQVSLTCLVKGFYPSDIAVEWESNGQPENNYKTTPPVLDSDGSFFLYSKLTVDKSRWQQGNVFSCSVLHEALHSHYTQKSLSLSPGGGSDSWQEEVIKLCGRELVRAQIAICGKSTGGEGEGGEGEGGSRQLYSALANKCCHVGCTKRSLAQFC

The test deals with human RXFP1, full-length (human), Q9HBX9. The test can be described thus: cell-based or functional assay.
Chain of human RXFP1, full-length (human), Q9HBX9 (Q9HBX9 whole entry): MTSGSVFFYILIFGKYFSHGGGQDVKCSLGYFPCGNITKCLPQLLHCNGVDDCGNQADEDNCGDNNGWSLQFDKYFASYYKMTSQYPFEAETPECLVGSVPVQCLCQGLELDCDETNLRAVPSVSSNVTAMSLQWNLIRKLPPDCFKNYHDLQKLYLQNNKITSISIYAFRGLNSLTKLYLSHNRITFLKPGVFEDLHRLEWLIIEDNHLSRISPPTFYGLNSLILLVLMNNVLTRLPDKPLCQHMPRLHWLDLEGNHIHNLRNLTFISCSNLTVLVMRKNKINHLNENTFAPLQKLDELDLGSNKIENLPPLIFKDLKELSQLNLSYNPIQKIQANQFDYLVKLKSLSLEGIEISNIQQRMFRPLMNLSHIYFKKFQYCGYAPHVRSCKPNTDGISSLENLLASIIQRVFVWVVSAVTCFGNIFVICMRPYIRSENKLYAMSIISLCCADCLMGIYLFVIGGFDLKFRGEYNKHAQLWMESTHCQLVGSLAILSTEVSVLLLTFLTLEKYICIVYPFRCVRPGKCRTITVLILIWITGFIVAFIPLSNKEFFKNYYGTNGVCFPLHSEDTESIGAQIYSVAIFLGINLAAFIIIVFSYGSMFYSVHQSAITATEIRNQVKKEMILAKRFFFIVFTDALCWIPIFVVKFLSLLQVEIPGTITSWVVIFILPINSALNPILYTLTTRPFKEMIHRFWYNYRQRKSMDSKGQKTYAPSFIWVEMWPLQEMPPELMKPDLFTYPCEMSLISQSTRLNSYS
For the molecule B1, the Potency Assay EC50 (nM), transient hRXFP1 cAMP assay was found to be 54.4 nM.

The molecule B2 registered a Potency Assay EC50 (nM), transient hRXFP1 cAMP assay of 9.3 nM.

On to B3, for which the Potency Assay EC50 (nM), transient hRXFP1 cAMP assay turned out to be 41.9 nM.

The values above are taken from patent publication US20230340058A1.
